According to patent US20100124555A1, “Compositions and Methods for Treating Pancreatic Tumors” (UNIVERSITE DE LA MEDITERRANEE, priority 2007, published 2010):

Columns and labels:
living cells in culture = assay: Pulse-chase confocal microscopy internalization; assay type: cell-based; conditions: pulse 30 min at 4° C.; chase 2 h at 37° C.
Description: A pulse-chase experiment using confocal microscopy was used to assess the interaction of the IgM 16D10 antibody with living cells in culture. (Pulse: 30 min at 4° C.; Chase: 0 or 2 h at 37° C. in culture medium.) It was observed that virtually all of the mAb was internalized within 2 h. A fraction of the mAbs co-localized with LAMP1.

SOJ-6 cells [1] = assay: Cell-cycle distribution by propidium iodide flow cytometry, SOJ-6; assay type: cell-based, human; conditions: SOJ-6 after mAb16D10 treatment
Description: Cells were washed twice using cold PBS 1×/BSA 0.2%/Sodium Azide 0.05% buffer. Staining was performed using the different antibodies during 1H at 4° C. into round 96-well plates using 5×10^4 cells per well. Cells were then washed twice before being incubated with secondary reagents. After two washes, cells were re-suspended before acquisition into PBS1X/Formaldehyde 1%. Stainings were acquired on a FACScan (Becton Dickinson, San Jose, Calif.) and results were analysed using FlowJo Software. SOJ-6 cells pre-treated or not with 5 μg/ml aphidicolin (a reversible inhibitor of eukaryotic nuclear DNA replication, which blocks the cell cycle at early S-phase) for 6 h, were then incubated with mAb16D10 or irrelevant IgM used as a negative control. Cells were released from culture plates with a non-enzymatic cell dissociation solution, washed with PBS^+/+, fixed with 70% ethanol at −20° C. and washed with PBS^+/+. The cells were resuspended in a solution of 400 μg/ml propidium iodide in isoflow buffer and were incubated for 30 min at room temperature as already described [Mi-Lian et al., 2004]. Cell-cycle distribution was detected by flow cytometry and analyzed by Mod Fit software (Verity Software House, Inc., Topsham, Me.). The red fluorescence of single events was recorded using excitation and emission at 488 nm and at 610 nm respectively, to measure the DNA index.
We next wished to know whether mAb16D10-induced apoptosis was due, in part, to the arrest of the cell cycle. Cell cycle distribution of the SOJ-6 cells after treatment was assessed by observing DNA profiles following SOJ-6 cells pre-treated not or with aphidicolin, treated not or with mAb16D10. Each experiment was carried out in triplate. We used a specific DNA marker, Propidium Iodide, to determine the different phases of the cell cycle by flow cytometry. […] Indeed, the shift of cells from the G2/M to the G1/S phase and from the G1/S to the apoptosis was also observed following aphidicolin treatment. […]

[2] = test system: p53, cyclin D1, GSK-3β in SOJ-6 cells; assay: Western blot of cell cycle regulatory proteins; assay type: cell-based, human
Description: SOJ-6 cells were grown in 6-well culture plates in RPMI 1640 medium with 10% FCS. At subconfluency, the medium was removed and replaced for 24 hours by fresh RPMI medium with 10% inactivated FCS. SOJ-6 cells were then incubated with mAb16D10 or Cisplatin for 24 hours. At the end of incubation, cells were washed three times with ice-cold PBS (without […] and Mg^++) harvested and pelleted by centrifugation. Pellets were washed twice and lysed at 4° C. in 0.5 ml of lysis buffer (10 mM Tris-HCl pH 7.4, 150 mM NaCl, 1% Triton X-100, 1 mM benzamidine and phosphatase inhibitors). After lysis, homogenates were clarified by centrifugation at 10,000 g for 10 min at 4° C. An aliquot was saved for protein determination using the bicinchoninic acid assay (Pierce, Rockford, Ill.). Proteins (50 μg/lane) in reducing SDS buffer were separated onto 10, 12, or 15% polyacrylamide with 0.1% SDS (according to the molecular weight range of proteins to be separated). After electrophoretic migration, proteins were silver stained. Alternatively, proteins were transferred onto nitrocellulose membranes using a Mini Transblot electrophoretic cell (BioRad, Hercule, Oreg.), and transferred proteins were immunodetected by using appropriate primary and secondary antibodies. After washes, membranes were developed with a chemoluminescent substrate according to the manufacturer's instructions (Roche Diagnostics, Switzerland). In each experiment, a control was included by omitting primary antibodies or by using a non-immune serum.
The expression of different cell cycle regulatory proteins, specifically p53 and cyclin D1, was next analyzed. […] Since cyclin D1 expression may be directly regulated by GSK-3β (Diehl et al., 1998 Genes Dev. 12(22):3499-511), we next focused on the expression level of this kinase in SOJ-6 cells once challenged with mAb16D10.

SOJ-6 cells [3] = assay: Apoptosis by caspase activity (CaspACE FITC-VAD-fmk in situ marker); assay type: cell-based, human
Description: Cells grown in 8-well plates (Polystyrene vessel, BD Falcon) were treated with mAb16D10 or mouse IgM in RPMI with inactivated FCS for 24 hours prior to the addition of CaspACE FITC-VAD-fmk in situ marker (Promega) at a final concentration of 10 μM in the culture medium according to manufacturer's instructions. Then cells were washed in PBS, fixed for 15 minutes in 2% paraformaldehyde, and washed once again. Upon caspase action on FITC-VAD-fmk, apoptotic cells become fluorescent and the number of fluorescent cells was determined in triplicate on collections of 10 fields randomly examined under the fluorescent microscope.

SOJ-6 cells [4] = assay: MTT cell growth and proliferation assay, SOJ-6; assay type: cell-based, human; conditions: SOJ-6, increasing concentrations of antibody, 24 h
Description: (§1) Cell proliferation was determined using MTT assay as previously described (Mosmann et al., 1983 J Immunol Methods, 65(1-2):55-63). Briefly, cells were seeded at subconfluence in appropriate complete media containing 10% FCS in 96-well culture plates. Media were replaced for 24 h by fresh media with 10% inactivated FCS, including increasing concentrations of antibodies directed against FAPP (pAbL64, mAbJ28 and mAb16D10). Cells were washed with PBS and incubated with 100 μl of MTT (0.5 mg/ml) in complete media for 3 h, washed with PBS and finally incubated with DMSO for 30 min at 37° C. Cell growth was determined by measuring absorbance at 550 nm using a MR 5000 microplate spectrophotometer. All independent determinations were done in triplicate and compared to control.

PANC-1 cells = assay: MTT cell growth and proliferation assay, PANC-1; assay type: cell-based, human; conditions: PANC-1, increasing concentrations of antibody, 24 h
Description: as §1

[5] = test system: cell surface antigens of fixed SOJ-6 cells; assay: FACS cell surface binding stability on fixed SOJ-6 cells; set-up: species or system human; conditions: preliminary FACS experiments
From the text: Taking in account that most of the antibodies that have been studied so far at Innate Pharma, have kon rate association constants ranging from 5×10^5 to 5×10^6 M^−1s^−1, one can estimate that the recombinant 16D10 antibody bivalent affinity is in the nanomolar order (e.g., 10 to 1 nanoM) which is compatible with the industrial development of a therapeutic antibody.

B1: 16D10: IgM monoclonal antibody recognizing FAPP/BSDL; producing cells deposited with the CNCM under the number I-3188 (antibody, listed as Mus musculus, V domains shown)
VH: QVQLQQSDAELVKPGASVKISCKASGYTFTDHAIHWVKQKPEQGLEWIGYISPGNDVIKFNEKFKGKATLTADKSSSTAYMQLNSLTSEDSAVYFCKRSEGGVFDYWGQGTTLTVS
VL: NIMMTQSPSSLAVSAGEKVTMSCKSSQSVLYSSNQKNFLAWYQQKPGQSPKLLIYWASTRESGVPDRFTGSGSGTDFTLTISSVQAEDLAVYYCHQYLSSYTFGGGTKLEIK
Question: With B1 as the molecule, how does the “fraction of mAb internalized” value (living cells in culture) read?
Answer: virtually all

Question: And the apoptotic cells (SOJ-6 cells [1])?
Answer: 6%

Question: And the “cells in G1/S” value (SOJ-6 cells [1])?
Answer: 96%

Question: What about the “cells in G2/M phase” value (SOJ-6 cells [1]) of the same molecule?
Answer: 4%

Question: And the “expression of cyclin D1” value [2]?
Answer: decreased that of cyclin D1

Question: And the “expression of p53” value [2]?
Answer: increased the expression of p53

Question: And the “expression of total GSK-3β” value [2]?
Answer: constant

Question: What about the “phospho-GSK-3β (inactive form)” value [2] of the same molecule?
Answer: a decrease in the phospho-GSK-3β

Question: And the “apoptotic cellular death of SOJ-6 cells (number of apoptotic cells/cm2)” value (SOJ-6 cells [3]; 24 h, compared to RPMI and mouse IgM)?
Answer: leads to the apoptosis of SOJ-6 cells

Question: What about the “apoptosis by caspase activity (number of apoptotic cells compared to control)” value (SOJ-6 cells [3]; SOJ-6, 24 hours, 16D10 25 μg/ml, recombinant chimeric 16D10 5 μg/ml) of the same molecule?
Answer: clearly enhanced

Question: And the “caspases through which apoptosis is stimulated” value (SOJ-6 cells [3]; cells pre-treated with or without caspase inhibitors)?
Answer: stimulates apoptosis through the caspase-3, caspase-8, and caspase-9

Question: And the “% growth of cells” value (SOJ-6 cells [4])?
Answer: does cause a decrease in SOJ-6 cells

Question: And the “% growth of cells” value (PANC-1 cells)?
Answer: unable to cause a decrease in growth or number of PANC-1 cells

Question: And the “stability of staining on fixed SOJ-6 cells” value [5]?
Answer: seemed stable
